Data from PMC9098222.

Biological target: PIK3R2/p85β (UniProt O00459)
Experiment: anti-Myc IP, PIK3R2 immunoblot
Settings: reference: Myc-IRS4 wild type; sites Y779

binding against the reference: weaker
Substance: IRS4 (insulin receptor substrate 4) (from UniProt O14654) Myc-IRS4 Y779F
